Results taken from patent US6893870 (Human Genome Sciences, dated 2005).

Target: tissue plasminogen activator (UniProt P00750 36-562, limits assumed)
Test: cell-based or functional assay

Sequence of tissue plasminogen activator (P00750 36-562 limits assumed): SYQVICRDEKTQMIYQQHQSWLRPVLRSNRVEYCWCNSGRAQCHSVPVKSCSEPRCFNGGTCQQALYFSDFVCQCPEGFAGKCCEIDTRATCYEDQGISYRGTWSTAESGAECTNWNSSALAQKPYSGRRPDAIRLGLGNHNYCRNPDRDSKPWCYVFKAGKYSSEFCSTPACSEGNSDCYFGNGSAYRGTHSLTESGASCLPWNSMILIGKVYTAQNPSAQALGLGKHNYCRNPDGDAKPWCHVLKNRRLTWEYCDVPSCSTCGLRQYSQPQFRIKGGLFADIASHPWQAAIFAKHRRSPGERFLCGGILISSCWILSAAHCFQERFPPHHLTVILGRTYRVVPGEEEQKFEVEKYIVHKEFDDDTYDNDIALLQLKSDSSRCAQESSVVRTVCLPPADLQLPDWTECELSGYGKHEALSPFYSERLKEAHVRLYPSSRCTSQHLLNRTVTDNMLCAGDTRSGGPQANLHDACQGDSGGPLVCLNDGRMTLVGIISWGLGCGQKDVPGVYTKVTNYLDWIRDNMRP

anti-tPA activity (plasminogen activator inhibitory activity) of concentrated conditioned media: 3 fold over PAPAI negative clones
B1: pancreas-derived plasminogen activator inhibitor (PAPAI) protein (other)
chain: SRCSAQKNTEFAVDLYQEVSLSHKDNIIFSPLGITLVLEMVQLGAKGKAQQQIRQTLKQQETSAGEEFLVLKSFCSAISEKKQEFTFNLANALYLQEGFTVKEQYLHGNKEFFQSAIKLVDFQDAKACAEMISTWVERKTDGKIKDMFSGEEFGPLTRLVLVNAIYFKGDWKQKFRKEDTQLINFTKKNGSTVKIPMMKALLRTKYGYFSESSLNYQVLELSYKGDEFSLIIILPAEGMDIEEVEKLITAQQILKWLSEMQEEEVEISLPRFKVEQKVDFKDVLYSLNITEIFSGGCDLSGITDSSEVYVSQVTQKVFFEINEDGSEAATSTGIHIPVIMSLAQSQFIANHPFLFIMKHNPTESILFMGRVTNPDTQEIKGRDLDSL
